Measured values from US5856155, “Compounds and related methods for modulating potassium ion channels and assays for such compounds” (The Johns Hopkins University School Of Medicine, dated 1999).

T1: NH2-terminal domain of NGK2b (a.a. 1-180) (Kv3.1) (rat, UniProt P25122)
T1 sequence: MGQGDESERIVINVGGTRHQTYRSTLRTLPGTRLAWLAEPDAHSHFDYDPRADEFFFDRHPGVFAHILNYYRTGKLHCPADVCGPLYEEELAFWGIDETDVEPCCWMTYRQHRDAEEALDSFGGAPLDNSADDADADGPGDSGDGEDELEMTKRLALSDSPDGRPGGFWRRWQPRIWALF

T2: NH2-terminal domain of rshal1 (a.a. 1-228) (Kv4.2) (rat, UniProt Q63881)
T2 sequence: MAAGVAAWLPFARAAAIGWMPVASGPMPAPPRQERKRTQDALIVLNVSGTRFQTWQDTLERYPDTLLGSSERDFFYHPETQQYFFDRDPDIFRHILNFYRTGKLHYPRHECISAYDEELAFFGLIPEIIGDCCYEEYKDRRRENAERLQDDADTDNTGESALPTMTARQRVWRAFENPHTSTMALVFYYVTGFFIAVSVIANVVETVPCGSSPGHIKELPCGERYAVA

T3: NH2-terminal domain of DRK1 (a.a. 1-182) (Kv2.1) (rat, UniProt P15387)
T3 sequence: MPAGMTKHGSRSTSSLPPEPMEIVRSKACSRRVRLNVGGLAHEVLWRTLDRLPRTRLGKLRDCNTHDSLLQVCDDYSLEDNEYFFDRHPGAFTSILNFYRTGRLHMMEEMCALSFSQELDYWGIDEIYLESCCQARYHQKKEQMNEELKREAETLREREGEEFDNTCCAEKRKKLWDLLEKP

T4: NH2-terminal domain of Drosophila Shaw2 (Kv3 subfamily) (Drosophila, UniProt P17972)
T4 sequence: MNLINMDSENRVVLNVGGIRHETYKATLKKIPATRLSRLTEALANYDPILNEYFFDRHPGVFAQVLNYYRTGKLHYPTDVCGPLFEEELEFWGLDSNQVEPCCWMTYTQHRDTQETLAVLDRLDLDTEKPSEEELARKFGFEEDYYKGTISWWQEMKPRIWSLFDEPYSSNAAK

T5: NH2-terminal domain of Drosophila Shal2 (Kv4 subfamily) (Drosophila, UniProt P17971-1)
T5 sequence: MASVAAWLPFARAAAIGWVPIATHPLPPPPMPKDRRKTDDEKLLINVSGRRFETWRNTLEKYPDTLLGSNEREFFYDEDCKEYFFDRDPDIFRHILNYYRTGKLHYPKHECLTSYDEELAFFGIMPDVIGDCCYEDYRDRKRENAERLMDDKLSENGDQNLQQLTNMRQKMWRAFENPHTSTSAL

B1: Kvβ1 (a.a. 1-401) (other)
chain: MQVSIACTEHNLKSRNGEDRLLSKQSSTAPNVVNAARAKFRTVAIIARSLGTFTPQHHISLKESTAKQTGMKYRNLGKSGLRVSCLGLGTWVTFGGQISDEVAERLMTIAYESGVNLFDTAEVYAAGKAEVILGSIIKKKGWRRSSLVITTKLYWGGKAETERGLSRKHIIEGLKGSLQRLQLEYVDVVFANRPDSNTPMEEIVRAMTHVINQGMAMYWGTSRWSAMEIMEAYSVARQFNMIPPVCEQAEYHLFQREKVEVQLPELYHKIGVGAMTWSPLACGIISGKYGNGVPESSRASLKCYQWLKERIVSEEGRKQQNKLKDLSPIAERLGCTLPQLAVAWCLRNEGVSSVLLGSSTPEQLIENLGAIQVLPKMTSHVVNEIDNILRNKPYSKKDYRS

Experiments:
[1] = molecular target: B1; assay: cell-based or functional assay
[2] = molecular target: ShBΔ(6-46) (Drosophila, UniProt P08510); assay: cell-based or functional assay
[3] = molecular target: GAL4 DNA binding (DB) domain alone (Saccharomyces cerevisiae (strain ATCC …, UniProt P04386)); assay: yeast two-hybrid control, growth on medium lacking histidine
From the text: (§1) Figure 2: FIG. 2 depicts the results of a yeast two-hybrid assay wherein YGH1 yeast cells were transformed by different pairwise combinations of the two-hybrid constructs that express either fusion proteins of the DNA binding domain of GAL4 or the transcription activation domain of GAL4. […] In the middle panel, the transformants carrying the two different fusion proteins were first selected by dextrose synthetic drop-out medium with no supplement of leucine and tryptophan (SD, −leu, −trp, +his) to ensure that in different combinations the transformants have both plasmids. In the lower panel, the identical number of cells in each combination were also dotted on the same medium without histidine (SD, −leu, −trp, −his). The transformants were allowed to grow at 30° C. for 65 hours.
(§2) Cytoplasmic NH_2— and COOH— terminal domains of different α-subunits were subcloned and expressed as fusion proteins of the GAL4 DNA binding (DB) domain. Kvβ1 was expressed as a fusion protein of either the GAL4 DNA binding (DB) domain or transcription activation (TA) domain. […] When Kvβ1 was coexpressed with the NH_2-terminal domain of RCK4 (NRCK4) (a.a. 1–306; an α-subunit sensitive to Kvβ1-mediated inactivation), the yeast transformants grew on a selective medium (FIG. 2, No. 1).

[4] = molecular target: T6, GAL4 transcription activation (TA) domain alone (Saccharomyces cerevisiae (strain ATCC …, UniProt P04386)); assay: as above
From the text: as §1, §2

[5] = molecular target: T1, NH2-terminal domain of NGK2b (a.a. …); assay: yeast two-hybrid, growth on medium lacking histidine
From the text: as §1, with “FIG. 6B” for “Figure 2: FIG. 2”, “FIG. 6B depicts the” for “2: FIG. 2 depicts the”, “lower panel, identical numbers” for “lower panel, the identical number”, “panel, identical numbers of cells” for “the identical number of cells”
(§3) In the case of Kvβ1, its subfamily-specific association with the NH_2-terminal domains of Kv1 α-subunits is essential for the Kvβ1-mediated inactivation. […] What is not known, however, is whether the failure to detect the Kv2.1-Kvβ2 complex is due to the incompatibility of these two subunits to interact or their limited overlapping expression in vivo. To test the specificity of the Kvβ2-α (interaction, pairwise combinations of Kvβ2 and the NH_2-terminal domains of eight different α-subunits were analyzed in the yeast two hybrid system. The eight α-subunits included were: ShB (Kamb et al., *Cell*, 50, 405–413 (1987); Pongs et al., *EMBO J.*, 7, (1988); Tempel et al., *Science*, 237, 770–775, (1987), Shabll, Shaw2, and Shal2 from Drosophila (Butler et al., *Nucleic Acids Res.*, 18, 2173–2174 (1990); Kv1.4 (or RCK4) (Stuhmer et al., *EMBO J.*, 8, 3235–3244 (1989), Kv2.1 (or DPK1) (Frech et al., *Nature*, 340, 642–645 (1989), Kv3.1 (or NGK2b) (Yokoyama et al., *FEBS Lett.*, 259, 37–42 (1989), and Kv4.2(or rShal1) (Baldwin et al., *Neuron*, 7, 471–483 (1991); Roberds et al., *Proc. Natl. Acad. Sci. USA*, 88, 1798–1802 (1991)) from rat.

[6] = molecular target: T2, NH2-terminal domain of rshal1 (a.a. …); assay: as above
From the text: as §1, with “FIG. 6B” for “Figure 2: FIG. 2”, “FIG. 6B depicts the” for “2: FIG. 2 depicts the”, “lower panel, identical numbers” for “lower panel, the identical number”, “panel, identical numbers of cells” for “the identical number of cells”
as §3

[7] = molecular target: T3, NH2-terminal domain of DRK1 (a.a. …); assay: as above
From the text: as §1, with “FIG. 6B” for “Figure 2: FIG. 2”, “FIG. 6B depicts the” for “2: FIG. 2 depicts the”, “lower panel, identical numbers” for “lower panel, the identical number”, “panel, identical numbers of cells” for “the identical number of cells”
as §3

[8] = molecular target: T7, COOH-terminal domain of RCK4 (CRCK4, a.a. 566-651) (rat, UniProt P15385); assay: as above
From the text: as §1, with “FIG. 6B” for “Figure 2: FIG. 2”, “FIG. 6B depicts the” for “2: FIG. 2 depicts the”, “lower panel, identical numbers” for “lower panel, the identical number”, “panel, identical numbers of cells” for “the identical number of cells”
as §3

[9] = molecular target: T4, NH2-terminal domain of Drosophila Shaw2 …; assay: as above
From the text: as §1, with “FIG. 6B” for “Figure 2: FIG. 2”, “FIG. 6B depicts the” for “2: FIG. 2 depicts the”, “lower panel, identical numbers” for “lower panel, the identical number”, “panel, identical numbers of cells” for “the identical number of cells”
as §3

[10] = molecular target: T5, NH2-terminal domain of Drosophila Shal2 …; assay: as above
From the text: as §1, with “FIG. 6B” for “Figure 2: FIG. 2”, “FIG. 6B depicts the” for “2: FIG. 2 depicts the”, “lower panel, identical numbers” for “lower panel, the identical number”, “panel, identical numbers of cells” for “the identical number of cells”
as §3

[11] = molecular target: T6, GAL4 transcription activation (TA) …; assay: yeast two-hybrid control (FIG. 6A, No. 1), growth on medium lacking histidine
From the text: as §1, with “FIG. 6A” for “Figure 2: FIG. 2”, “FIG. 6A depicts the” for “2: FIG. 2 depicts the”, “lower panel, identical numbers” for “lower panel, the identical number”, “panel, identical numbers of cells” for “the identical number of cells”
To begin the test, the NH_2-terminal domain and COOH-terminal domain of Kv1.4 (RCK4) were subcloned. These truncated cytoplasmic fragments, i.e., the NH_2-terminal domain (a.a. 1–306) and COOH-terminal domain (a.a. 566–651), were expressed individually with Kvβ2 as GAL4 fusion proteins. Using this methodology, if Kvβ2 were to interact with one or both truncated Kv1.4 fragments, the resultant interaction(s) would confer the ability upon the yeast transformants to grow on synthetic medium lacking histidine. Table 2 below defines the conditions of the yeast two-hybrid system in FIG. 6A.

[12] = molecular target: T7, COOH-terminal domain of RCK4 (CRCK4, …); assay: yeast two-hybrid, growth on medium lacking histidine; similar results with a β-galactosidase assay
From the text: as §1, with “FIG. 6A” for “Figure 2: FIG. 2”, “FIG. 6A depicts the” for “2: FIG. 2 depicts the”, “lower panel, identical numbers” for “lower panel, the identical number”, “panel, identical numbers of cells” for “the identical number of cells”
To begin the test, the NH_2-terminal domain and COOH-terminal domain of Kv1.4 (RCK4) were subcloned. These truncated cytoplasmic fragments, i.e., the NH_2-terminal domain (a.a. 1–306) and COOH-terminal domain (a.a. 566–651), were expressed individually with Kvβ2 as GAL4 fusion proteins. […]
Similar results were obtained using a β-galactosidase assay (data not shown). Thus, like Kvβ1, Kvβ2 was determined to interact with the NH_2-terminal domain of the Kv1.4 α-subunit.

Row | percent of recorded cells with fast inactivation, whole cell voltage clamp recording of transfected COS cells [1] | percent of recorded cells with fast inactivation, whole cell voltage clamp recording of transfected COS cells [2] | binding result [3] | binding result [4] | binding result [5] | binding result [6] | binding result [7] | binding result [8] | binding result [9] | binding result [10] | binding result [11] | binding result [12] | Binder
1 | 61 % of cells | 61 % of cells |  |  |  |  |  |  |  |  |  |  | ΔKvβ2(39-316) (other) YRNLGKSGLRVSCLGLGTWVTFGGQITDEMAEHLMTLAYDNGINLFDTAEVYAAGKAEVVLGNIIKKKGWRRSSLVITTKIFWGGKAETERGLSRKHIIEGLKASLERLQLEYVDVVFANRPDPNTPMEEIVRAMTHVINQGMAMYWGTSRWSSMEIMEAYSVARQFNLIPPICEQAEYHMFQREKVEVQLPELFHKIGVGAMTWSPLACGIVSGKYDSGIPPYSRASLKGYQWLKDKILSEEGRRQQAKLKELQAIAERLGCTLPQLAIAWCLRNEG
2 |  |  | no binding | no binding | no binding | no binding | no binding | no binding |  |  |  |  | B1
3 |  |  |  |  | no binding | no binding | no binding |  | no binding | no binding | no binding | no binding | Kvβ2 (a.a. 1-367) (other) MYPESTTGSPARLSLRQTGSPGMIYSTRYGSPKRQLQFYRNLGKSGLRVSCLGLGTWVTFGGQITDEMAEHLMTLAYDNGINLFDTAEVYAAGKAEVVLGNIIKKKGWRRSSLVITTKIFWGGKAETERGLSRKHIIEGLKASLERLQLEYVDVVFANRPDPNTPMEEIVRAMTHVINQGMAMYWGTSRWSSMEIMEAYSVARQFNLIPPICEQAEYHMFQREKVEVQLPELFHKIGVGAMTWSPLACGIVSGKYDSGIPPYSRASLKGYQWLKDKILSEEGRRQQAKLKELQAIAERLGCTLPQLAIAWCLRNEGVSSVLLGASNAEQLMENIGAIQVLPKLSSSIVHEIDSILGNKPYSKKDYRS
4 | 22.5 % of cells | 22.5 % of cells |  |  |  |  |  |  |  |  |  |  | ΔKvβ2(39-367) (other) YRNLGKSGLRVSCLGLGTWVTFGGQITDEMAEHLMTLAYDNGINLFDTAEVYAAGKAEVVLGNIIKKKGWRRSSLVITTKIFWGGKAETERGLSRKHIIEGLKASLERLQLEYVDVVFANRPDPNTPMEEIVRAMTHVINQGMAMYWGTSRWSSMEIMEAYSVARQFNLIPPICEQAEYHMFQREKVEVQLPELFHKIGVGAMTWSPLACGIVSGKYDSGIPPYSRASLKGYQWLKDKILSEEGRRQQAKLKELQAIAERLGCTLPQLAIAWCLRNEGVSSVLLGASNAEQLMENIGAIQVLPKLSSSIVHEIDSILGNKPYSKKDYRS
